# Measurements: patent US20050147687A1, “Methods for fabrication, uses and compositions of small spherical particles of AAT prepared by controlled phase separation” (priority 2003, published 2005)
# Molecular target: porcine pancreatic elastase (PPE) (Sus scrofa, UniProt P00772)
# Assay: Inhibition of porcine pancreatic elastase by rAAT (specific activity)
# Assay type: biochemical
# Method: To determine the specific activity, the rAAT small spherical particles were dissolved in 0.2M Tris-HCl pH 8.0 at room temperature. The resulting solution was analyzed by an assay which measures the capacity of rAAT to inhibit the ability of porcine pancreatic elastase (PPE) to hydrolyze synthetic peptides that contain a p-nitroanilide group at their C-terminus. The same solution of rAAT small spherical particles was then assayed for protein concentration using the Bicinchoninic Acid (BCA) assay. A control rAAT starting material solution was also analyzed in both assays. Because the activity assay was developed to determine the activity based on a concentration of 1 mg/ml protein per sample, the activity value was corrected based on the actual protein concentration as determined by BCA, giving the specific activity value: [formula]
# Chain of porcine pancreatic elastase (PPE) (P00772 27-266): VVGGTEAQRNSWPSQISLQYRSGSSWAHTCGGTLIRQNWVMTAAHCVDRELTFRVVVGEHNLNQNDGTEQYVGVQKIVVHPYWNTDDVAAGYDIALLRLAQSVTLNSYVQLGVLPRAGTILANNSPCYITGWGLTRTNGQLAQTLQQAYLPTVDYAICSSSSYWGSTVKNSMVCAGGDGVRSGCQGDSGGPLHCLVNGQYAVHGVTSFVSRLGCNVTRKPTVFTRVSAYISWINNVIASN
substance,measurement,setting,value
control rAAT starting material: control solution of recombinant alpha-1-antitrypsin starting material,"specific activity, inhibition of porcine pancreatic elastase","scale 100-300 mg (n = 12, column)",64.34 ± 4.95 IU/mg
same,"specific activity, inhibition of porcine pancreatic elastase","scale 200-300 mg (n = 8, vessel)",65.87 ± 0.98 IU/mg
